# Reference: patent publication US20230406922A1
# Key:
# [1] = target: human CD19, full length, on cells (human) (UniProt P15391); experiment: FACS on CHO-K1-human CD19-1C9 cells
# [2] = target: human CD19, full length, on cells (human) (UniProt P15391); experiment: FACS on CHO-K1-human CD19-2G4 cells
# [3] = target: monkey CD19, full length, on HEK293T cells (monkey); experiment: FACS on HEK293T-monkey CD19 cells
# [4] = target: human CD19, full length, on cells (human) (UniProt P15391); experiment: FACS on CHO-K1-human CD19-1C4 cells
# [5] = target: human CD19, full length, on cells (human) (UniProt P15391); experiment: FACS on Raji cells (endogenous CD19)
# [6] = target: human CD19, full length, on cells (human) (UniProt P15391); experiment: FACS on CHO-K1-human CD19-2C8 cells
# [7] = target: human CD19-his protein (human) (UniProt P15391); experiment: ELISA, human CD19-his coated at 4 ug/mL
# [8] = target: human CD19, full length, on cells (human) (UniProt P15391); experiment: FACS on Raji cells
# [9] = target: cynomolgus monkey CD19 on peripheral blood B cells (cynomolgus monkey (Macaca fascicularis)); experiment: FACS on cynomolgus monkey PBMC, gated on CD20-positive B cells
# [10] = target: human CD19, full length, on cells (human) (UniProt P15391); experiment: FACS on CHO-K1-human CD19 cells
# [11] = target: murine CD19 protein (murine) (UniProt P25918); experiment: ELISA, murine CD19 coated
# Chain of murine CD19 protein (murine) (P25918 19-287 limits assumed): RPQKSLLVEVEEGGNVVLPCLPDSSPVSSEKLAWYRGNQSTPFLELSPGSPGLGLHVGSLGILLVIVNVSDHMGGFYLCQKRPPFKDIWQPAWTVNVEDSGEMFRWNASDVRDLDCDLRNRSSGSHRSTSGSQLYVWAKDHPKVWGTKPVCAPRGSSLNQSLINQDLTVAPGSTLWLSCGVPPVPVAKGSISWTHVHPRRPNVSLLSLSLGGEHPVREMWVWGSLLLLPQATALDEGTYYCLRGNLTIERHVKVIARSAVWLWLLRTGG
substance,measurement,setting,value
IgG subtype control (antibody),mean fluorescence intensity of cells,[1],50 MFI
same,mean fluorescence intensity of cells,[2],50 MFI
same,mean fluorescence intensity of cells,[3],62 MFI
same,mean fluorescence intensity of cells,[4],50 MFI
same,mean fluorescence intensity of cells,[5],78 MFI
same,mean fluorescence intensity of cells,[6],50 MFI
"negative control antibody mIgG1 (anti-hel-mIgG1, antibody against hen egg lysozyme)",OD450 at 0.0001 nM,[7],0.11 OD450
same,OD450 at 0.001 nM,[7],0.12 OD450
same,OD450 at 0.01 nM,[7],0.11 OD450
same,OD450 at 0.10 nM,[7],0.11 OD450
same,OD450 at 1.00 nM,[7],0.11 OD450
same,OD450 at 10.00 nM,[7],0.12 OD450
same,OD450 at 100.00 nM,[7],0.15 OD450
same,maximum mean fluorescence intensity,[8],382 MFI
same,proportion of positive cells to B cells (%) at 1 nM,[9],3%
same,proportion of positive cells to B cells (%) at 10 nM,[9],5%
same,proportion of positive cells to B cells (%) at 100 nM,[9],11%
same,maximum mean fluorescence intensity,[10],102 MFI
same,maximum mean fluorescence intensity,[3],165 MFI
same,OD450 at 0.0001 nM,[11],0.07 OD450
same,OD450 at 0.001 nM,[11],0.06 OD450
same,OD450 at 0.01 nM,[11],0.06 OD450
same,OD450 at 0.10 nM,[11],0.06 OD450
same,OD450 at 1.00 nM,[11],0.06 OD450
same,OD450 at 10.00 nM,[11],0.08 OD450
same,OD450 at 100.00 nM,[11],0.11 OD450
